Molecular target: T1, podocalyxin-like protein-1 (PODXL) (human, UniProt O00592 23-558)
T1 construct: whole, on cells; In the flow cytometry experiments the target is undifferentiated hESC; also called PCLPI; Podocalyxin-like protein 1 precursor
T1 sequence (looked up): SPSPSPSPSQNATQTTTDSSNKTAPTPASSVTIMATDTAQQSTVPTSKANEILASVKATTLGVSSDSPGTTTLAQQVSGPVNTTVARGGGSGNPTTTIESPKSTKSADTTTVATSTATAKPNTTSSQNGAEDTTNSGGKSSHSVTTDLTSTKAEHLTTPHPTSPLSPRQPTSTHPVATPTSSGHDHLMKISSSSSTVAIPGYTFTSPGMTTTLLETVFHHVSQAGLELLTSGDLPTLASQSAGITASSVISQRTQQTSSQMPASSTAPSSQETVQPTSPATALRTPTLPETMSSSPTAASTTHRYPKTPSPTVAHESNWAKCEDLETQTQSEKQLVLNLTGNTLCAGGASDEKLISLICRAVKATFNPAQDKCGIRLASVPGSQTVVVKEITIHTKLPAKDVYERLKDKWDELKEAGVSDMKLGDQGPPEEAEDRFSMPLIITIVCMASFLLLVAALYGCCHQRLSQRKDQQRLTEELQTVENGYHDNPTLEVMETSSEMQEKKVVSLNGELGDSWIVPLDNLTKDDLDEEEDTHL
Experiment: kinetics of binding to PODXL on the surface of hESCs; method not stated

Kd: 40 nM | koff: 0.0029 s⁻¹ | kon: 71000 M⁻¹ s⁻¹
B1: monoclonal antibody mAb 84 (antibody, V domains shown)
VH: QVQLQQSGGGLVQPGGSMKLSCVASGFTFSNYWMNWVRQSPEKGLEWVAEIRLKSNNYATHYAESVKGRFTISRDDSKSSVYLQMNNLRAEDTGIYYCTGERAWGQGTTVTVSS
VL: DIELTQSPAIMSASPGEKVTMTCSASSSVNYMYWYQQKPGSSPRLLIYDTSNLASGVPVRFSGSGSGTSYSLTISRMEAEDAATYYCQQWSSYPYTFGGGTKLEIKR
